Measured values as given in patent publication US11278600B2, “Human alpha-galactosidase variants” (Codexis, Inc., priority 2014, dated 2022).
Changes are numbered by the printed parent chain.

B1: 15 (protein)
chain: LDNGLARTPTMGWLHWERFMCNLDCQEEPDSCISEKLFMEMAELMVSDGWKDAGYEYLCIDDCWMAPQRDSEGRLQADPQRFPHGIRQLANYVHSKGLKLGIYADVGNKTCAGFPGSFGYYDIDAQTFADWGVDLLKFDGCYCDSLENLADGYKHMSLALNRTGRSIVYSCEWPLYMWPFQKPNYTEIRQYCNHWRNFADIDDSWKSVKSILDWTSFNQERIVDVAGPGGWNDPDMLVIGNFGLSWNQQVTQMALWAIMAAPLFMSNDLRHISPQAKALLQDKDVIAINQDPLGKQGYRLRKGDNFEVWERPLSGLAWAVAMINRQEIGGPRSYTIAVASLGKGVACNPACFITQLLPVKRKLGFYEWTSRLKSHINPTGTVLLQLENTMQMSLKDLL
modifications: Synthetic Polypeptide sequence of Variant No. 15 of mature Human GLA
B2: 16 (protein)
chain: LDNGLARTPTMGWLHWERFMCNLDCQEEPDSCISEKLFMEMAELMVSDGWKDAGYEYLCIDDCWMAPQRDSEGRLQADPQRFPHGIRQLANYVHSKGLKLGIYADVGNKTCAGFPGSFGYYDIDAQTFADWGVDLLKFDGCYCDSLENLADGYKHMSLALNRTGRSIVYSCEWPLYMWPFQKPNYTEIRQYCNHWRNFADIDDSWKSIKSILDWTSFNQERIVDVAGPGGWNDPDMLVIGNFGLSWNQQVTQMALWAIMAAPLFMSNDLRHISPQAKALLQDKDVIAINQDPLGKQGYQLRQGDNFEVWERPLSGLAWAVAMINRQEIGGPRSYTIAVASLGKGVACNPACFITQLLPVKRKLGFYEWTSRLKSHVNPTGTVLLQLENTMQMSLKDLLL
modifications: Synthetic Polypeptide sequence of Variant No. 16 of mature Human GLA
B3: 23 (protein)
chain: B2 chain with D48E, I208V, Q302K
modifications: Synthetic Polypeptide sequence of Variant No. 23 of mature Human GLA
B4: 22 (protein)
chain: B2 chain with D48E, I208V, Q299R, K373R
modifications: Synthetic Polypeptide sequence of Variant No. 22 of mature Human GLA
B5: 17 (protein)
chain: B2 chain with D48G, V376I
modifications: Synthetic Polypeptide sequence of Variant No. 17 of mature Human GLA
B6: 24 (protein)
chain: B2 chain with D48E, K373R
modifications: Synthetic Polypeptide sequence of Variant No. 24 of mature Human GLA
B7: 25 (protein)
chain: B2 chain with K36Q, D48E, K373R, V376I
modifications: Synthetic Polypeptide sequence of Variant No. 25 of mature Human GLA
B8: 21 (protein)
chain: B2 chain with D48E, I208V, N247D
modifications: Synthetic Polypeptide sequence of Variant No. 21 of mature Human GLA
B9: 20 (protein)
chain: B2 chain with D48E, I208V, N247D, Q299R
modifications: Synthetic Polypeptide sequence of Variant No. 20 of mature Human GLA
B10: 19 (protein)
chain: B2 chain with D48E, I208V, N247D, Q299R, Q302K
modifications: Synthetic Polypeptide sequence of Variant No. 19 of mature Human GLA
B11: 18 (protein)
chain: B2 chain with D48E, F217S, K373R, V376I
modifications: Synthetic Polypeptide sequence of Variant No. 18 of mature Human GLA

test: HTP-analysis of yeast culture supernatants, no challenge (MUGal hydrolysis); format: biochemical; conditions: activity of the variant/activity of WT GLA (SEQ ID NO: 5), yeast supernatant
Method: (§1) Yeast (INVSc1) cells transformed with vectors expressing GLA and GLA variants using the lithium acetate method were selected on SD-Ura agar plates. After 72 h incubation at 30° C. colonies were placed into the wells of Axygen® 1.1 ml 96-well deep well plates filled with 200 μl/well SD-Ura broth (2 g/L SD-Ura, 6.8 g/L yeast nitrogen base without amino acids [Sigma Aldrich]), 3.06 g/L sodium dihydrogen phosphate, 0.804 g/L disodium hydrogen phosphate, pH 6.0 supplemented with 6% glucose. The cells were allowed to grow for 20-24 hours in a Kuhner shaker (250 rpm, 30° C., and 85% relative humidity). Overnight culture samples (20 μL) were transferred into Corning Costar® 96-well deep plates filled with 380 µL of SD-ura broth supplemented with 2% glucose. The plates were incubated for 66-84 h in a Kuhner shaker (250 rpm, 30° C., and 85% relative humidity). The cells were then pelleted (4000 rpm×20 min), and the supernatants isolated and stored at 4° C. prior to analysis.
GLA variant activity was determined by measuring the hydrolysis of 4-methylumbelliferyl α-D-galactopyranoside (MUGal). For this assay, 5-50 μL, of yeast culture supernatant produced as described above, was mixed with 0-45 μL, of McIlvaine Buffer (McIlvaine, J. Biol. Chem., 49:183-186 [1921]), pH 4.8 and 50 μL of 2 mM MUGal in 50 mM citrate, 200 mM KCl, pH 4.6 in a 96-well, black, opaque bottom plate. The reactions were mixed briefly and incubated at 37° C. for 30-180 minutes, prior to quenching with 100 μL, of 1 M sodium carbonate. Hydrolysis was analyzed using a SpectraMax® M2 microplate reader monitoring fluorescence (Ex. 355 nm, Em. 448 nm).

Row | Molecule | Relative Activity of GLA Variants After No Challenge (NC)
1 | B1 | + (+ = 0.5 to 1.5 relative activity over WT GLA (SEQ ID NO: 5))
2 | B2 | + (+ = 0.5 to 1.5 relative activity over WT GLA (SEQ ID NO: 5))
3 | B3 | + (+ = 0.5 to 1.5 relative activity over WT GLA (SEQ ID NO: 5))
4 | B4 | + (+ = 0.5 to 1.5 relative activity over WT GLA (SEQ ID NO: 5))
5 | B5 | + (+ = 0.5 to 1.5 relative activity over WT GLA (SEQ ID NO: 5))
6 | B6 | + (+ = 0.5 to 1.5 relative activity over WT GLA (SEQ ID NO: 5))
7 | B7 | + (+ = 0.5 to 1.5 relative activity over WT GLA (SEQ ID NO: 5))
8 | B8 | + (+ = 0.5 to 1.5 relative activity over WT GLA (SEQ ID NO: 5))
9 | B9 | + (+ = 0.5 to 1.5 relative activity over WT GLA (SEQ ID NO: 5))
10 | B10 | + (+ = 0.5 to 1.5 relative activity over WT GLA (SEQ ID NO: 5))
11 | B11 | + (+ = 0.5 to 1.5 relative activity over WT GLA (SEQ ID NO: 5))

test: HTP-analysis of supernatants pretreated with acid (MUGal hydrolysis); format: biochemical; conditions: challenge at pH 4.3; activity of the variant/activity of WT GLA (SEQ ID NO: 5); yeast supernatant
Method: as §1
GLA variants were challenged with acidic buffer to simulate the extreme pHs that the variants may encounter in lysosomes. First, 50 μL of yeast culture supernatant and 50 uL of McIlvaine buffer (pH 3.3-4.3) were added to the wells of a 96-well round bottom plate. The plates were sealed with a PlateLoc Thermal Microplate Sealer (Agilent) and incubated at 37° C. for 1-3 h. For the assay, 10-50 uL of acid-pH-challenged sample was mixed with 0-40 μL, of McIlvaine buffer pH 4.8, 25 μL, of 1 M citrate buffer pH 4.3 and 25 μL, of 4 mM MUGal in McIlvaine buffer pH 4.8. The reactions were mixed briefly and incubated at 37° C. for 30-180 minutes, prior to quenching with 100 μL, of 1 M sodium carbonate. Hydrolysis was analyzed using a SpectraMax® M2 microplate reader monitoring fluorescence (Ex. 355 nm, Em. 448 nm).

Row | Molecule | Relative Activity of GLA Variants After Challenge at pH 4.3
12 | B1 | + (+ = 0.5 to 1.5 relative activity over WT GLA (SEQ ID NO: 5))
13 | B2 | ++ (++ = >1.5 to 2.5 relative activity over WT GLA (SEQ ID NO: 5))
14 | B3 | +++ (+++ = >2.5 relative activity over WT GLA (SEQ ID NO: 5))
15 | B4 | + (+ = 0.5 to 1.5 relative activity over WT GLA (SEQ ID NO: 5))
16 | B5 | + (+ = 0.5 to 1.5 relative activity over WT GLA (SEQ ID NO: 5))
17 | B6 | ++ (++ = >1.5 to 2.5 relative activity over WT GLA (SEQ ID NO: 5))
18 | B7 | + (+ = 0.5 to 1.5 relative activity over WT GLA (SEQ ID NO: 5))
19 | B8 | +++ (+++ = >2.5 relative activity over WT GLA (SEQ ID NO: 5))
20 | B9 | +++ (+++ = >2.5 relative activity over WT GLA (SEQ ID NO: 5))
21 | B10 | ++ (++ = >1.5 to 2.5 relative activity over WT GLA (SEQ ID NO: 5))
22 | B11 | + (+ = 0.5 to 1.5 relative activity over WT GLA (SEQ ID NO: 5))

test: HTP-analysis of supernatants pretreated with base (MUGal hydrolysis); format: biochemical; conditions: challenge at pH 7.0; activity of the variant/activity of WT GLA (SEQ ID NO: 5); yeast supernatant
Method: as §1
GLA variants were challenged with basic (neutral) buffer to simulate the pHs that the variants encounter in the blood following their administration to a patient. First, 50 μL of yeast culture supernatant and 50 uL of McIlvaine buffer (pH 7.0-8.2) or 200 mM sodium bicarbonate (pH 9.1-9.7) were added to the wells of a 96-well round bottom plate. The plates were sealed and incubated at 37° C. for 1-18 h. For the assay, 10-50 μL of basic-pH-challenged sample was mixed with 0-40 μL, of McIlvaine buffer pH 4.8, 25 μL, of 1 M citrate buffer pH 4.3 and 25 μL, of 4 mM MUGal in McIlvaine buffer pH 4.8. The reactions were mixed briefly and incubated at 37° C. for 30-180 minutes, prior to quenching with 100 μL, of 1 M sodium carbonate. Hydrolysis was analyzed using a SpectraMax® M2 microplate reader monitoring fluorescence (Ex. 355 nm, Em. 448 nm).

Row | Molecule | Relative Activity of GLA Variants After Challenge at pH 7.0
23 | B1 | + (+ = 0.5 to 1.5 relative activity over WT GLA (SEQ ID NO: 5))
24 | B2 | + (+ = 0.5 to 1.5 relative activity over WT GLA (SEQ ID NO: 5))
25 | B3 | ++ (++ = >1.5 to 2.5 relative activity over WT GLA (SEQ ID NO: 5))
26 | B4 | + (+ = 0.5 to 1.5 relative activity over WT GLA (SEQ ID NO: 5))
27 | B5 | + (+ = 0.5 to 1.5 relative activity over WT GLA (SEQ ID NO: 5))
28 | B6 | + (+ = 0.5 to 1.5 relative activity over WT GLA (SEQ ID NO: 5))
29 | B7 | + (+ = 0.5 to 1.5 relative activity over WT GLA (SEQ ID NO: 5))
30 | B8 | ++ (++ = >1.5 to 2.5 relative activity over WT GLA (SEQ ID NO: 5))
31 | B9 | ++ (++ = >1.5 to 2.5 relative activity over WT GLA (SEQ ID NO: 5))
32 | B10 | + (+ = 0.5 to 1.5 relative activity over WT GLA (SEQ ID NO: 5))
33 | B11 | ++ (++ = >1.5 to 2.5 relative activity over WT GLA (SEQ ID NO: 5))
